Assay results taken from the supplement of paper PMC10724198.
± gives the standard deviation of the averaged measurements.

Tested on: Saccharomyces cerevisiae
Assay: protein stability index of tFT-peptide fusion (C-terminal peptide) (PSI (0-1 scale)); higher = more stable (slower turnover)
Settings: genetic background: wild type; temperature: 30 C
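Also: PSI is a weighted mean of sequencing reads over stability bins, variants kept only with over 10 reads, mCherry proximal and sfGFP distal, peptide attached via GGGS linker.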

NSGSQSQDKQER and LSLSVNLPLFPT are within error of each other in protein stability index: 0.658 ± 0.013 for the first, 0.648 ± 0.067 for the second.

PTPNPGHTRACL and PVPPRLPLPAPL are within error of each other in protein stability index: 0.763 ± 0.23 for the first, 0.757 ± 0.051 for the second.

Compared with GIYAWFSGWRKD, AGRGRAIGAGFS is lower in protein stability index: 0.72 ± 0.015 for the first, 0.649 ± 0.054 for the second.

NSVLRESSGLQL and CQFPSLPLPSFM are within error of each other in protein stability index: 0.689 ± 0.044 for the first, 0.66 ± 0.032 for the second.

Going from TGVCKGMRWRGV to GMIGLAEVGIKC, the protein stability index falls from 0.683 ± 0.045 to 0.573 ± 0.0067.

Going from LPPPPLTLPPPP to RCHAFGEWLRGW, the protein stability index rises from 0.694 ± 0.02 to 0.733 ± 0.003.

KTKKKRKQKGKQ and GYVVVGGGGGLG are within error of each other in protein stability index: 0.684 ± 0.064 for the first, 0.717 ± 0.039 for the second.

VAVGHWGIVPLW and AVISSSFFGSSY are within error of each other in protein stability index: 0.725 ± 0.08 for the first, 0.721 ± 0.076 for the second.

Compared with LGFQSRTTRCCG, KVSSCLTNFILV is lower in protein stability index: 0.6685 ± 0.0014 for the first, 0.552 ± 0.029 for the second.

DCVRMLREGAGW and VLMGGCGSWMAV are within error of each other in protein stability index: 0.721 ± 0.079 for the first, 0.6771 ± 0.0044 for the second.

CESRSIVSFVLL and SSPPTPPFPPPP are within error of each other in protein stability index: 0.73 ± 0.11 for the first, 0.7044 ± 0.00099 for the second.

PPPPSPGPASPA and LCGAFLPPPFSR are within error of each other in protein stability index: 0.716 ± 0.045 for the first, 0.686 ± 0.052 for the second.

Going from RICRWGSRAVVG to VWGLGWEFWWGV, the protein stability index rises from 0.685 ± 0.015 to 0.7157 ± 0.0021.

Compared with KIRINKKVKNKK, SMDISYLISFQR is higher in protein stability index: 0.671 ± 0.005 for the first, 0.7426 ± 0.0049 for the second.

VRGRGSGGGVAG and SSSVQSIPLPSA are within error of each other in protein stability index: 0.675 ± 0.065 for the first, 0.71 ± 0.043 for the second.

PPPPRPLPTSRP and SSSHIRTDLSHF are within error of each other in protein stability index: 0.689 ± 0.012 for the first, 0.6852 ± 0.0065 for the second.

FPRHPPPFPRPT and GLGRRPGVGGVR are within error of each other in protein stability index: 0.681 ± 0.031 for the first, 0.71 ± 0.0075 for the second.

Going from AKDSVDYKEGES to VSVIPIVISLSL, the protein stability index falls from 0.6602 ± 0.0041 to 0.528 ± 0.036.

RSTPALRPVDLE and SHLGPYPAPARP are within error of each other in protein stability index: 0.707 ± 0.049 for the first, 0.7185 ± 0.006 for the second.

AGSSFDLGSGYS and DSTMWDALSVCV are within error of each other in protein stability index: 0.724 ± 0.083 for the first, 0.621 ± 0.026 for the second.

First: LSCALCLLGFRC
Second: PRSRSHPLCSAP
The protein stability index of the first is lower: 0.647 ± 0.029 for the first, 0.813 ± 0.062 for the second.

Going from ADKNQQTVNWRR to LFLPYLPPRPLL, the protein stability index rises from 0.6956 ± 0.0019 to 0.7642 ± 0.0064.

KGNRGKDAVKTE and GFTGWGRRGLGG are within error of each other in protein stability index: 0.7556 ± 0.004 for the first, 0.716 ± 0.076 for the second.

Going from PCHPGASLRRRL to LRGRYNDVRHGK, the protein stability index falls from 0.861 ± 0.067 to 0.708 ± 0.053.

LGVGGLRSRGAG and CPDFSSSLTFFL are within error of each other in protein stability index: 0.74 ± 0.2 for the first, 0.706 ± 0.014 for the second.

First: QVWMRDCARKFQ
Second: TRSGGNGYERVC
The protein stability index of the first is higher: 0.731 ± 0.012 for the first, 0.667 ± 0.03 for the second.

RGKKKAKIYREH and WLFDRLPFNAEN are within error of each other in protein stability index: 0.766 ± 0.13 for the first, 0.715 ± 0.046 for the second.

DEGFSRSGLLLK and ARPDTSPPGTSL are within error of each other in protein stability index: 0.6921 ± 0.003 for the first, 0.664 ± 0.044 for the second.

PPRALPPPLPLP and RSPHGLRSRIQR are the same in protein stability index: 0.72 ± 0.083 for the first, 0.72 ± 0.037 for the second.

Going from CLDRRCTSRGCI to SLPVSSPIRILF, the protein stability index falls from 0.717 ± 0.03 to 0.6326 ± 0.0015.

GGVGGRGREWRR and PPPVLPPPPVSP are within error of each other in protein stability index: 0.7 ± 0.028 for the first, 0.719 ± 0.03 for the second.

PWVLSLASGSPS and SLMLDGRSTKAA are within error of each other in protein stability index: 0.687 ± 0.026 for the first, 0.6912 ± 0.0035 for the second.

Compared with LPPLPPSPPSPR, RIETHNQKSPGL is higher in protein stability index: 0.697 ± 0.029 for the first, 0.737 ± 0.0023 for the second.

Compared with SRRVVDVGVIRV, LPLASIYQLRSN is higher in protein stability index: 0.635 ± 0.02 for the first, 0.713 ± 0.039 for the second.

Going from NGSGVSEDRDEK to WLVFRISLLRFD, the protein stability index falls from 0.6298 ± 0.0034 to 0.541 ± 0.026.

SFSSAVIPPFAP and RGGGGGGIGFPR are within error of each other in protein stability index: 0.728 ± 0.053 for the first, 0.681 ± 0.066 for the second.

ACWGCGVGRGEV and DYSRCGCRLSGK are within error of each other in protein stability index: 0.814 ± 0.12 for the first, 0.677 ± 0.03 for the second.

First: PRPCLPPDPPPS
Second: REEKRREEEGKK
The protein stability index of the first is lower: 0.654 ± 0.0071 for the first, 0.701 ± 0.028 for the second.

CLFSFGPLAVNI and FDFISHLYWSIV are within error of each other in protein stability index: 0.6 ± 0.0079 for the first, 0.582 ± 0.011 for the second.

CRFLDVSSWILI and WGSSGWVGEGGG are within error of each other in protein stability index: 0.707 ± 0.065 for the first, 0.657 ± 0.044 for the second.

GKKTTQELGKTK and LAFGLGSFVWNC are within error of each other in protein stability index: 0.803 ± 0.13 for the first, 0.6765 ± 0.00075 for the second.

GWCRSYVAFGVY and RAPPPPHPSSPP are within error of each other in protein stability index: 0.64 ± 0.052 for the first, 0.744 ± 0.079 for the second.

First: PPLPSAPSTYPA
Second: PPPPLSLPPVPL
The protein stability index of the first is lower: 0.634 ± 0.012 for the first, 0.736 ± 0.012 for the second.

Compared with SSPPFPPSPPLP, GGRGWVGEMGGR is higher in protein stability index: 0.695 ± 0.012 for the first, 0.784 ± 0.053 for the second.

GRGGARARRRVL and PSRRFLPEKRSL are within error of each other in protein stability index: 0.687 ± 0.071 for the first, 0.678 ± 0.0039 for the second.

VPVAGSFVGIRF and GASVSCQWFCGA are within error of each other in protein stability index: 0.6753 ± 0.004 for the first, 0.694 ± 0.015 for the second.

GGALNGVGNGEL and ALPPPLPPPAGP are within error of each other in protein stability index: 0.67 ± 0.053 for the first, 0.699 ± 0.077 for the second.

Going from VLFGLSTSSLCL to LRIRSTSSPPRP, the protein stability index rises from 0.644 ± 0.075 to 0.74 ± 0.015.

DAVRRNSAWFSF and PPPLLPVPQPLF are within error of each other in protein stability index: 0.677 ± 0.025 for the first, 0.672 ± 0.087 for the second.

RSPRLRSRVRVP and HPPLSPPSALFL are within error of each other in protein stability index: 0.639 ± 0.083 for the first, 0.719 ± 0.069 for the second.

With SPPPAPPRSGPL the protein stability index was 0.651 ± 0.051.
